Measurements reported in patent US10385116 (OMNIOX, dated 2019).

Legend:
[1] = biological target: the molecule itself; test: analytical size exclusion chromatography (Superdex 200 10/300 GL); self-association into a homotrimer
[2] = biological target: the molecule itself; test: size exclusion chromatography; self-association of H-NOX+foldon monomers into a homotrimer

B1: Thermoanaerobacter tengcongensis L144F H-NOX-foldon-His6 fusion protein (monomer unit) (other)
chain: MKGTIVGTWIKTLRDLYGNDVVDESLKSVGWEPDRVITPLEDIDDDEVRRIFAKVSEKTGKNVNEIWREVGRQNIKTFSEWFPSYFAGRRLVNFLMMMDEVHLQLTKMIKGATPPRLIAKPVAKDAIEMEYVSKRKMYDYFLGFIEGSSKFFKEEISVEEVERGEKDGFSRLKVRIKFKNPVFEYKKNLEGSGGYIPEAPRDGQAYVRKDGEWVLLSTFLRGSHHHHHH
modifications: heme (porphyrin IX) cofactor bound non-covalently (so in the source)
notes: 229 amino acids, 26,677 AMU as a monomer; Three of these chains associate through the foldon domain to form the about 80 kDa H-NOX trimer; It is entered as the monomer unit so that the self-association can be written as a pair; also called H-NOX-foldon fusion protein; H-NOX-foldon protein
- binding result [1]: binds

B2: H-NOX variant L144F-foldon fusion protein with no His6 tag at the C-terminus (monomer unit of the trimer) (other)
chain: MKGTIVGTWIKTLRDLYGNDVVDESLKSVGWEPDRVITPLEDIDDDEVRRIFAKVSEKTGKNVNEIWREVGRQNIKTFSEWFPSYFAGRRLVNFLMMMDEVHLQLTKMIKGATPPRLIAKPVAKDAIEMEYVSKRKMYDYFLGFIEGSSKFFKEEISVEEVERGEKDGFSRLKVRIKFKNPVFEYKKNLEGSGGYIPEAPRDGQAYVRKDGEWVLLSTFL
modifications: non-covalently bound heme cofactor is not carried by the letters
notes: No His6 tag; also called H-NOX+foldon; L144F H-NOX trimer without His6
- binding result [2]: binds
